The results in this text go back to patent US20170267970A1, “Three-Dimensional Hydrogels that Support Growth of Physiologically Relevant Tissue and Methods of Use Thereof” (Whitehead Institute for Biomedical Research, priority 2016, published 2017).

Experiment [1] concerns breast cancer samples cultured in 3D culture. The experiment is described as follows: Tamoxifen sensitivity of breast cancer samples in 3D culture (CellTiter-Glo on intact gels). The conditions noted are these: 48 hours of treatment; ER-positive cancer cells. The class given is cell-based, human. The protocol: (§1) Shown are cell counts for each dose of drug following 48 hours of treatment. Cells were counted using CellTiter-Glo assay performed on intact gels. […] Both cultures were grown in hydrogel culture for nine days with 40 ng/mL nerve growth factor.

For experiment [2], the system named is mouse dorsal root ganglia neurons. The experiment is described as follows: Growth of dorsal root ganglia neurons in hydrogels with nerve growth factor. The class given is cell-based. To be noted: 40 ng/mL NGF; nine days. As to the method: as §1
Mouse dorsal root ganglia were collected and either dissociated into single cells (FIG. 22A) or kept intact (FIG. 22B), and seeded into hydrogels containing no growth factors aside from 40 ng/mL nerve growth factor (NGF). They were cultured in 50% DMEM, 50% F12 growth media supplemented with 10% heat-inactivated fetal bovine serum and 40 ng/mL NGF. The cultures were grown for nine days, at which point they were fixed and stained for the expression of the sodium channel NaV1.7 (a marker of nociceptive neurons) and the DNA dye DAPI.

Experiment [3] concerns breast tissues cultured in hydrogel scaffolds. The experiment is described as follows: Morphological response to hormones of breast tissues cultured in hydrogel scaffolds. The format is cell-based, human. An excerpt: FIG. 1A is a schematic representation of hydrogel assembly. FIG. 1B depicts representative bright-field images of tissue growth after ten days in Matrigel, polymerized collagen or the presently disclosed three-dimensional hydrogels (e.g., in the absence of BPE), alongside carmine stained mammary tissue sections from independent reduction mammoplasty patients. […] FIG. 1E depicts schematic and representative images showing the effect of pituitary hormones (0.4% bovine pituitary extract [BPE]) and 1 μg/mL recombinant human prolactin administration on the development of tissue structures grown in the presently disclosed three-dimensional hydrogels. BPE was added at seeding (D0) and prolactin at two weeks (N=4, 7 and 14, 1 resp). Bottom left images show representative architecture prior to the administration of prolactin. […] Error bars represent SEM.
Distance of the section from the surface of the structure is indicated. Scale bars are 200 μm.
We next assessed if breast tissues cultured in hydrogel scaffolds respond to steroid, pituitary, or lactogenic hormones, which are known to stimulate the development of mammary epithelial tissue in vivo.

Entries after “also recorded” stand apart in the source; their conditions may differ.

For the molecule `CC/C(=C(\c1ccccc1)c1ccc(OCCN(C)C)cc1)c1ccccc1` [tamoxifen], in experiment [1], the “sensitivity / responsiveness to tamoxifen (cell counts)” value is given as “consistently responsive; also recorded: exhibit sensitivity”.

As to “nerve growth factor: nerve growth factor, 40 ng/mL in hydrogel and medium”, in experiment [2], the “neuron survival and growth of axons and dendrites” value is “survive and grow new axons and dendrites”.

B1: prolactin: lactogenic hormone; 1 μg/mL recombinant human prolactin (protein, UniProt P01236 29-227, looked up)
Prolactin: LPICPGGAARCQVTLRDLFDRAVVLSHYIHNLSSEMFSEFDKRYTHGRGFITKAINSCHTSSLATPEDKEQAQQMNQKDFLSLIVSILRSWNEPLYHLVTEVRGMQEAPEAILSKAVEIEEQTKRLLEGMELIVSQVHPETKENEIYPVWSGLPSLQMADEESRLSAYYNLLHCLRRDSHKIDNYLKLLKCRIIHNNNC
As for B1, in experiment [3] (1 μg/mL recombinant human prolactin added at two weeks, day 21), the “increase in lobular volume” value worked out at 4 fold. For the same molecule, the “lipid droplets / lipid content (H&E, oil red O staining)” value in experiment [3] (prolactin 1 μg/mL) is recorded as “formation of large lipid droplets; also recorded: lipid rich; also recorded: Lipid droplets can be seen”. The “formation of milk-like opaque substance in lumens” value in experiment [3] (prolactin after 2 weeks of estrogen and progesterone) is given as “promotes the formation of an opaque substance that fills the luminal space of the structures”.
